Experimental findings from patent publication US20260137802A1 (CRISPR THERAPEUTICS, published 2026) are described below.

B1: P-0057 (Fc fusion)
chain: QVQLVESGGGLVQAGDSLRLSCAASGRTFSSYAMGWFRQAPGKEREFVASITSSGLVAYYGDSVEARFTISRDNAKNTVYLQMDSLKPEDTAVYYCAARQYVGSGSYYLKKEGGYEYWGPGTQVTVSS
notes: the alignment instead labels 'P35/P57' and 'P32/P56'; also called P57; not shown: Fc fragment
B2: P-0053 (Fc fusion)
chain: QVQLVESGGGLVQAGGSLRLSCVASGRTFSSYAMGWFRQGPGKEREFAAAILSNGLTTYYADSVKGRFTISRDNAKDTVYLQMNSLKPEDTANYYCAAAFTPEFRDGGIWDDASVDYWGQGTQVTVSS
notes: also called P53; bivalent form of P10; not shown: Fc fragment
B3: P-0055 (Fc fusion)
chain: EVQLVESGGGLVRAGGSLRLSCAASGRTFTYDARAWFRQAPGKEREFVAAISWSGGSTYYPNSMKGRFTISRDNAKNTVYLQMNSLKPEDTAVYYCAADESFPAYYSDYALYRYWGQGTLVTVSS
notes: also called P55; bivalent form of P31; not shown: Fc fragment
B4: P-0059 (Fc fusion)
chain: QVQLVESGGGLVQAGGSLRLSCTASGDTFSSYSMGWFRQGPGKEREFVGGIRWSGGTTYYADSVKGRFTISRDNAKNTVYLQMNSLKREDTAVYYCAAVRRRWLIWQEEEYDYWGQGTLVTVSS
notes: also called P59; bivalent form of P12; not shown: Fc fragment
B5: P-0072 (Fc fusion)
chain: EVQLVESGGGLVQAGGSLRLSCAASGRTSGSYVMGWFRQAPGKEREFVAAISWSAGMTYYADSVKGRFTISRDNAKNTVYLQMNSLKPEDTAVYYCAADQRGVPAYYSDYALYDYWGQGTQVTVSS
notes: also called P72; bivalent form of P38; not shown: Fc fragment
B6: P-0060 (Fc fusion)
chain: EVQLVESGGGLVRAGGSLRLSCAASGRTTFSTYWLGWFRQAPGKNREFVAAISWSAGMAYYQDSKGRFTISRDNTKNTAYLQMNSLQPEDTAVYYCAAGRFHPIRVDTALYWAQGTQVTVSS
notes: also called P60; bivalent form of P27; not shown: Fc fragment
B7: P-0058 (Fc fusion)
chain: QVQLVESGGGLVQAGDSLRLSCAVSGRTLSNYFMAWLRQAPGKEREFVAAIHWSLGSTYYQDPVKGRFTISRDKAKNTVYLQMNTLKPEDTATYICAAGQHLSGLGGSAWSIEGDYWGQGTQVTVSS
notes: also called P58; bivalent form of P37; not shown: Fc fragment
B8: P-0056 (Fc fusion)
chain: QVQLVESGGGLVQAGGSLRLSCAASGGTFSIYPVGWFRQAPGKQREFVAAIGWSASGTYYGDSVEGRFTVSRDNARSTVYLRMSSLKPDDTAVYYCAAASGSNWRLGAIDEYDSWGQGTQVTVSS
notes: the alignment instead labels 'P35/P57' and 'P32/P56'; also called P56; not shown: Fc fragment
B9: P-0054 (Fc fusion)
chain: QVHLVESGGGLVQAGGSLGLSCAASGHTFSNYAMGWFRQAPGKEREFVAAISWSGGSTLYADSVKGRFTISRDNGENTVYLQMNSLKPEDTAVYYCALDSTGVYGTGYVSSRKGRYEYWGQGTLVTVSS
notes: also called P54; bivalent form of P29; not shown: Fc fragment
B10: P-0012 (Fc fusion)
chain: B4 chain
notes: Any second Fc chain without VHH is not described in the text; also called monovalent form of P12; not shown: Fc fragment
B11: P-0029 (Fc fusion)
chain: B9 chain
notes: Any second Fc chain without VHH is not described in the text; also called monovalent form of P29; not shown: Fc fragment
B12: P32 (VHH)
VHH: B1 chain
notes: also called anti-CD117 VHH P32
B13: P10 (VHH)
VHH: B2 chain
notes: also called P10/P53; anti-CD117 VHH P10
B14: P31 (VHH)
VHH: B3 chain
notes: also called P31/P55; anti-CD117 VHH P31
B15: P38 (VHH)
VHH: B5 chain
notes: also called P38/P72; anti-CD117 VHH P38
B16: P27 (VHH)
VHH: B6 chain
notes: also called P27/P60; anti-CD117 VHH P27
B17: P35 (VHH)
VHH: B8 chain
notes: also called anti-CD117 VHH P35

The EC50 is the concentration that produces a half-maximal response.

T1 sequence (P10721 26-524): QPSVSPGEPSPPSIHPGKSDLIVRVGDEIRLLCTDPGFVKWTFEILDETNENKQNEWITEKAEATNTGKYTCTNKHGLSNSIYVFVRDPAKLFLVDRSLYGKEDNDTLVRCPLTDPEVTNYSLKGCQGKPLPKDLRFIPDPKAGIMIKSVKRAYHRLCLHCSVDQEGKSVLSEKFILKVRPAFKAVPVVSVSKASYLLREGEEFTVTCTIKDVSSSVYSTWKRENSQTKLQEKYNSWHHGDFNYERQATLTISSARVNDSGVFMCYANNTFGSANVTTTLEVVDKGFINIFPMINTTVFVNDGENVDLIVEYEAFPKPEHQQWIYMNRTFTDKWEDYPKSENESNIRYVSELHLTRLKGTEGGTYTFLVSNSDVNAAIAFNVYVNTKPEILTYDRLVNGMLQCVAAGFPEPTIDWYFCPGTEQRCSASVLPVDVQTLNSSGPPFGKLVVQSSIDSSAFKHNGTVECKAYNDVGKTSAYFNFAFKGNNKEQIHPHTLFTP
T2 sequence (P10721 26-976): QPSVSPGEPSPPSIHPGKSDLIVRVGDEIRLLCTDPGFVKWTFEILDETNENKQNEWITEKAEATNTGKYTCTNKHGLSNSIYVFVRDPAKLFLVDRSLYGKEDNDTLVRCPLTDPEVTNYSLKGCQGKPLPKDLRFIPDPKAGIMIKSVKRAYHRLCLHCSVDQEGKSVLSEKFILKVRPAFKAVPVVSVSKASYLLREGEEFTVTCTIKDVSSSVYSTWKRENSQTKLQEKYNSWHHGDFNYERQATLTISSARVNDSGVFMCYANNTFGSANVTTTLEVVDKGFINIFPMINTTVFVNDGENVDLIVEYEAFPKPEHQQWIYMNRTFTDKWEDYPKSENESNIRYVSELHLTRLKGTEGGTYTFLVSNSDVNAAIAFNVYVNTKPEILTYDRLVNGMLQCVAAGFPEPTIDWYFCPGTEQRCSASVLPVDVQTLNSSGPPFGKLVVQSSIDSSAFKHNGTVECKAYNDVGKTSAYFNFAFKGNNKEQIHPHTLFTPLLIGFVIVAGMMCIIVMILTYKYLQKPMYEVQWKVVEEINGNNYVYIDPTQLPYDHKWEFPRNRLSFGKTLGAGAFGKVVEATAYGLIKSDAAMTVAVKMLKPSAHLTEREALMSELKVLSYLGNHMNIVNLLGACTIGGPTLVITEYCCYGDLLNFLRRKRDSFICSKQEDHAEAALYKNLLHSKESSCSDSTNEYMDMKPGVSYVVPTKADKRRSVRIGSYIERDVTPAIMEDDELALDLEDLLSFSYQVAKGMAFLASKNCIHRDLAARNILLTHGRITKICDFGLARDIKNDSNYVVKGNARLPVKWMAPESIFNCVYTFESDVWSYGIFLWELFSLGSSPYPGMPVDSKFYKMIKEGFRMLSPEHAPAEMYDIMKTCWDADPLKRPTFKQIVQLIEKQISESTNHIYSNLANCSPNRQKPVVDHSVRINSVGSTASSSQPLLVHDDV

The first test has as its target T1, human CD117 ectodomain (human, UniProt P10721 26-524, biotinylated (BirA co-expression) where captured on streptavidin biosensors).
T1 construct: extracellular domain; also called cKIT; full length AviTagged CD117 ectodomain; not shown: C-terminal AviTag or His tag
The test is described as follows: ELISA, human CD117, bivalent Fc fusion. In general terms: In an ELISA, binding on a coated surface is turned into a signal by an enzyme label.
Take B1: the Kd is 0.21 nM.

Consider B2, for which the Kd stood at 0.16 nM.

On to B3, for which the Kd came out at 0.22 nM.

For the molecule B4, the Kd is 0.06 nM.

With B5, the Kd was found to be 0.21 nM.

As to B6, the Kd came out at 0.14 nM.

B7: the Kd came out at 0.33 nM.

The molecule B8 showed a Kd of 0.36 nM.

Molecule B9 yielded a Kd of 0.54 nM.

A further test concerns the target T2, human CD117 on cells (SKMEL-3 cells, CD34+ HSC) (human, UniProt P10721 26-976).
T2 construct: whole, on cells; also called CD117 on cell surfaces; CD117+ cells
Briefly: flow cytometry, skMEL-3 cells, monomeric Fc.
As to B10, the EC50 was > 10 nM.

In the case of B11, the EC50 was > 50 nM.

The next test has as its target cynomolgus monkey CD117 ectodomain (cynomolgus monkey). The test is described as follows: BLI (Octet), biotinylated ectodomain on SA biosensor, 1:1 global fit, bivalent Fc. A general note: In BLI a coated tip is dipped into the sample, and binding shifts an interference pattern.
Take B1: the Kd was 1.7 nM.

The molecule B2 registered a Kd of 0.00136 nM.

Regarding B3, the Kd was 0.961 nM.

For the molecule B4, the Kd was 0.0112 nM.

In the case of B5, the Kd came to 0.0112 nM.

Take B6: the Kd was 2.16 nM.

With B7, the Kd is 0.00166 nM.

In the case of B8, the Kd was 0.647 nM.

As to B9, the Kd came out at 19.8 nM.

A further test deals with T2, human CD117 on cells (SKMEL-3 cells, …). The test is described as follows: flow cytometry, CD34+ HSC, bivalent Fc. (In flow cytometry, cells or beads pass a laser one at a time.)
B2: the EC50 stood at 1 nM.

Consider B3, for which the EC50 was 1 nM.

The molecule B4 gave an EC50 of 50 nM.

For the molecule B5, a half-maximal effect (EC50) was put at 2 nM.

For B6, the EC50 was 2 nM.

In turn, B7 came in with an EC50 of 50 nM.

As to B8, a half-maximal response (EC50) required 10 nM.

With B9, the EC50 is > 50 nM.

For another test, the target named is T1, human CD117 ectodomain. The test is described as follows: ELISA, human CD117, monovalent Fc fusion.
On to B10, for which the Kd was determined as 1.04 nM.

Regarding B11, the Kd came out at 2.48 nM.

For another test, the target named is T1, human CD117 ectodomain. The test is described as follows: BLI (Octet), biotinylated ectodomain on SA biosensor, 1:1 global fit, bivalent Fc. From the text:
(§1) Pre-equilibrated streptavidin biosensors (SA, from Sartorius) were coated with biotinylated CD117 ectodomain by dipping the biosensors into wells containing an optimized dilution of human or cyno CD117 ectodomain. After re-equilibrating the biosensor tips in assay buffer, the biosensors were dipped into supernatant containing the VHH antibodies to allow association between the antibodies and the CD117 ectodomain. Finally, the biosensors were dipped into the assay buffer. The VHH antibodies disassociated from the CD117 ectodomain if association occurred. The association and dissociation of each VHH antibody was characterized qualitatively to identify VHHs that could bind both human and cyno CD117 ectodomains.
(§2) For example, kinetics parameters of the top VHH antibodies for binding to human CD117 and cynomolgus monkey CD117 ectodomain were obtained from the Octet® analysis by Biolayer Interferometry as described above. A minimum of three concentrations of purified VHH antibodies were tested per ectodomain target. The Octet® software was used to perform a global kinetic fit across all concentrations using a 1:1 binding model. This allowed determination of the kinetic parameters, association rate (kₒₙ), dissociation rate (koff) and equilibrium constant (KD) for the 9 antibodies of interest. Total chi-squared (X²) was also examined to determine the goodness of fit for the software's kinetic model.
Molecule B1 registered a Kd of 0.00215 nM.

For the molecule B2, the Kd was < 0.001 nM.

In turn, B3 gave a Kd of 0.00124 nM.

As for B4, the Kd turned out to be 0.0446 nM.

The molecule B5 displayed a Kd of 0.00126 nM.

In turn, B6 registered a Kd of 0.24 nM.

B7 gave a Kd of 0.00189 nM.

Consider B8, for which the Kd is 0.602 nM.

Take B9: the Kd amounted to 0.00682 nM.

Another test deals with T2, human CD117 on cells (SKMEL-3 cells, …). Briefly: flow cytometry, CD34+ HSC, monomeric Fc.
For B10, the EC50 is > 10 nM.

B11 yielded an EC50 of 50 nM.

The target in another test is T3, truncated CD117 ectodomain, Domain 1 (UniProt P10721 26-112, limits assumed, biotinylated).
T3 construct: domain: Domain 1; not shown: AviTag
T3 sequence (P10721 26-112 limits assumed): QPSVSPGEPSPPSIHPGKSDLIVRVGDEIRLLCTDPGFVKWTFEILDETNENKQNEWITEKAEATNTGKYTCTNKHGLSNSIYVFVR
Briefly: BLI, truncated ectodomain on SA biosensor. The method, then: To identify the approximate binding epitopes of the VHH antibodies, truncated ectodomains were expressed as fusion polypeptides with an AviTag. Additionally, biotin is added to the protein during expression to allow capture of the material onto Streptavidin-coated (SA) biosensors. SA biosensors (Sartorius) were incubated with one of the truncated ectodomains. Full length CD117 ectodomain was used as a control. […] Except for P29 and P37, all others bind Domains 1-2 and Domains 1-3. Except for P37, all others bind Domains 1-4.
As for B12, the binding result is given as “no binding”.

Regarding B13, the binding result is recorded as “no binding”.

B14: the binding result is on record as “no binding”.

Take B15: the binding result is “no binding”.

As for B16, the binding result was “no binding”.

Turning to B17, the binding result is “no binding”.

A further test addresses T1, human CD117 ectodomain. The test is described as follows: BLI (Octet), biotinylated ectodomain on SA biosensor, 1:1 global fit, monomeric Fc.
Description: as §1, §2
On to B10, for which the Kd turned out to be 49.2 nM.

For the molecule B11, the Kd was determined as 37.4 nM.

For the next test, the target named is T2, human CD117 on cells (SKMEL-3 cells, …). Briefly: flow cytometry, skMEL-3 cells, bivalent Fc.
For B2, the response was half-maximal at 1 nM (EC50).

Consider B3, for which the EC50 was determined as 1 nM.

As for B4, the EC50 was 50 nM.

Take B5: the midpoint of the response, the EC50, lay at 1 nM.

In turn, B6 had an EC50 of 2 nM.

For B7, the response was half-maximal at 3 nM (EC50).

Molecule B8 had an EC50 of 3 nM.

As to B9, the EC50 is > 50 nM.
